Measurements published in patent US10369187B2, “Peptide regulators of JNK family kinases” (Vanderbilt University, priority 2017, dated 2019).
“Also recorded” adds a separate entry of the source.

How the values were obtained:
MKK4 = target: T1, MKK4 (Homo sapiens, UniProt P45985); assay: MBP pull-down of purified MKK4; assay type: binding; conditions: for binding of MKK4 in MBP pull-down: purified GST-MKK4, peptide as MBP-fusion immobilized on amylose
T1 sequence (P45985 1-399): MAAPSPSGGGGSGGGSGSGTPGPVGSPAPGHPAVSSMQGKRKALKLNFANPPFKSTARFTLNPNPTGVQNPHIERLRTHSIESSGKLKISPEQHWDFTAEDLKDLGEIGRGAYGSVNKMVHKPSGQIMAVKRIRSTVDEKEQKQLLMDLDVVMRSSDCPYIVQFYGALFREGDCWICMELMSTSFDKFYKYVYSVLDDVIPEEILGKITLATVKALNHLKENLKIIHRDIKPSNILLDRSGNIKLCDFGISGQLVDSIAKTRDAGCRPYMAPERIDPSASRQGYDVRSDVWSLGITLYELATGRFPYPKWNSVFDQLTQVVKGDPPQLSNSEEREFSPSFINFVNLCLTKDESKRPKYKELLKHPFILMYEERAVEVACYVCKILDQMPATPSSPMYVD
Description: (§1) T1A was expressed in E. coli as an MBP-fusion and purified it on an amylose column^23. The ability of purified GST-MKK4 or GST-MKK7 (FIG. 1A) to bind MBP-T1A immobilized on an amylose column was tested in an in vitro pull-down assay, where MBP and MBP-arrestin-3 served as negative and positive controls, respectively (FIG. 1B). MBP-T1A, but not control MBP, effectively retained both kinases (FIG. 1B). […] Next, it was tested whether T1A binds the uppermost kinase in the cascade, ASK1. Because ASK1 is not available in purified form, HA-tagged ASK1 and YFP-tagged T1A (using YFP as a control) were co-expressed in COS7 cells, lysed the cells, and immunoprecipitated YFP constructs with anti-GFP antibody (FIG. 1C).
To make MBP-fusions containing arrestin-2/3 elements, the cDNAs encoding arrestin fragments were subcloned into pMal-p2T (generous gift from Dr. Keiji Tanaka, Tokyo Institute of Medical Science) between Eco RI and Xho I sites in frame with MBP, as described^23. MBP-Arr3 (full-length arrestin-3) was created by subcloning the corresponding cDNA into pMal-p2T between Eco RI and Not I sites^23. All MBP-arrestin-3 fusion proteins contained the same […] (SEQ ID NO:29) linker between MBP and arrestin-3 or its fragments. The MBP protein used as negative control was purified using empty pMal-p2T vector containing the same linker with 10 additional residues: […] (SEQ ID NO:30). MBP fusions were purified, as described^23. MBP pull-down was performed, as described^23. Briefly, Indicated MBP fusions (10-30 μg in 50 μL 20 mM Tris/150 mM NaCl) were immobilized on amylose resin (25 μL, 50% slurry, New England Biolabs) for 1 h at 4° C. with slight rotation. Purified, as described^40, MKK4/7 (10 μg in 50 μL 20 mM Tris/150 mM NaCl) were added to the immobilized MBP fusions and rotated gently for 2 h at 4° C. Samples were transferred to centrifuge filters (Durapore®-PVDF-0.65 μm), washed three times with 50 mM HEPES-Na, pH 7.3, 150 mM NaCl. The proteins were eluted by 100 μl of elution buffer (wash buffer containing 50 mM maltose) by gentle rotation for 5 min at 4° C. Eluates were analyzed by SDS-PAGE and Western blotting.

MKK7 = target: T2, MKK7 (Homo sapiens, UniProt O14733); assay: MBP pull-down of purified MKK7; assay type: binding; conditions: purified GST-MKK7; peptide as MBP-fusion immobilized on amylose
T2 sequence (O14733 1-419): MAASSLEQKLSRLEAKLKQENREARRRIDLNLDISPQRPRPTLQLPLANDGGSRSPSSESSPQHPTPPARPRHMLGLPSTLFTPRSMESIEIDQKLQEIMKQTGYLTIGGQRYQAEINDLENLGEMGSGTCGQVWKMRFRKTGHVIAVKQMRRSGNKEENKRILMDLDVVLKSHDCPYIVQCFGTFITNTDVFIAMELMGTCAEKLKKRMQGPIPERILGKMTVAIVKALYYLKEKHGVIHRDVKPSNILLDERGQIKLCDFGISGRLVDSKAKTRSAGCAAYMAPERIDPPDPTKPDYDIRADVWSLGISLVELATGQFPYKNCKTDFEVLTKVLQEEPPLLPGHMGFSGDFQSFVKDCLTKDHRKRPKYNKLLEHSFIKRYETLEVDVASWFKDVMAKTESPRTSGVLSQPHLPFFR
Description: as §1
To make MBP-fusions containing arrestin-2/3 elements, the cDNAs encoding arrestin fragments were subcloned into pMal-p2T (generous gift from Dr. Keiji Tanaka, Tokyo Institute of Medical Science) between Eco RI and Xho I sites in frame with MBP, as described^23. MBP-Arr3 (full-length arrestin-3) was created by subcloning the corresponding cDNA into pMal-p2T between Eco RI and Not I sites^23. All MBP-arrestin-3 fusion proteins contained the same […] (SEQ ID NO:29) linker between MBP and arrestin-3 or its fragments. […] Eluates were analyzed by SDS-PAGE and Western blotting.

MGEKPGTRVFKKSSPNCKLTVYLGK (bovine) [T1A, first 25 residues of arrestin-3]
interaction with MKK4 compared with MKK7 (MKK4; MBP pull-down, purified proteins): stronger interaction with MKK4 than with MKK7 | binding of MKK4 in MBP pull-down (MKK4): binds both MKKs; also recorded: comparably bind MKK4 | binding of MKK7 in MBP pull-down (MKK7): binds both MKKs

MGDK-GTRVFKKASPNGKLTVYLGK (MGDKGTRVFKKASPNGKLTVYLGK; N-terminal MGDK; bovine) [B1A, homologous N-terminal peptide from arrestin-2, negative control]
binding of MKK4 in MBP pull-down (MKK4): comparably bind MKK4 | binding of MKK7 in MBP pull-down (MKK7): less robust interaction
